Article PMC11224324
Each block holds one substance with its values, some of them ahead of it.

Assays:
[1] = target: REC_(hHK3), REC-1 domain of hybrid histidine kinase hHK3 (group III, ortholog of Nik1) from Chaetomium thermophilum (Chaetomium thermophilum); test: SEC-MALS; 20 µg of protein injected on PROTEIN KW-403 4F (Shodex); 50 mM Hepes pH 7, 150 mM NaCl; 0.35 ml/min; without and with PAM or BeF3-
[2] = target: Ct_HPt, histidine phosphotransfer protein from Chaetomium thermophilum (residues 9-175), Streptag removed (Chaetomium thermophilum)
[3] = target: Histag-Ct_HPt (residues 9-175), labelled with Red-Tris NTA dye (Chaetomium thermophilum); test: MST; Histag-Ct_HPt labelled with Red-Tris NTA dye held constant; REC-1 domain in sixteen two-fold dilutions from 1 mM (0.32 mM for REC_hHK6); PBS + 0.05% Tween-20; medium MST power; hyperbolic fit, 1:1 model; mean of two titrations
[4] = target: REC_(hHK6), REC-1 domain of hybrid histidine kinase hHK6 (group VI, ortholog of Sln1) from Chaetomium thermophilum (Chaetomium thermophilum); test: SEC-MALS; 20 µg of protein injected on PROTEIN KW-403 4F (Shodex); 50 mM Hepes pH 7, 150 mM NaCl; 0.35 ml/min; without and with PAM or BeF3-

Sequence of Ct_HPt, histidine phosphotransfer protein from Chaetomium thermophilum (residues 9-175), Streptag removed (Chaetomium thermophilum) (main, as listed by the source): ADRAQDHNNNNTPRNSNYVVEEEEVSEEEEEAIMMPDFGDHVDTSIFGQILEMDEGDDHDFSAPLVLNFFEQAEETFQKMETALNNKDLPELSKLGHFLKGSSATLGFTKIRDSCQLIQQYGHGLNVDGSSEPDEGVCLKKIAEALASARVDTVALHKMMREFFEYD

Substance: REC_(hHK4), REC-1 domain of hybrid histidine kinase hHK4 (group IV) from Chaetomium thermophilum (domain or fragment)
phosphorylated Ct HPt (Ct HPt~P) on native gel after 30 min with REC-1 domain pre-phosphorylated with PAM (control of Ct HPt with PAM alone ~15%; none with AcP) [2]: 35%

Substance: REC_(hHK5), REC-1 domain of hybrid histidine kinase hHK5 (group V) from Chaetomium thermophilum (domain or fragment)
Kd [3]: 94 µM

Next, values leading:

stoichiometry N [1]: 3
Substance: REC_(hHK3), REC-1 domain of hybrid histidine kinase hHK3 (group III, ortholog of Nik1) from Chaetomium thermophilum (domain or fragment)

stoichiometry N [4]: 2
Substance: REC_(hHK6), REC-1 domain of hybrid histidine kinase hHK6 (group VI, ortholog of Sln1) from Chaetomium thermophilum (domain or fragment)

phosphorylated Ct HPt (Ct HPt~P) on native gel after 30 min with REC-1 domain pre-phosphorylated with PAM (control of Ct HPt with PAM alone ~15%; none with AcP) [2]: 35%
Substance: REC_(hHK11), REC-1 domain of hybrid histidine kinase hHK11 (group XI) from Chaetomium thermophilum (domain or fragment)
